Assay results published in PMC6097932 (Molecular cell, 2018).

Target: the molecule itself
Assay: SEC

B1: FANCA-WT (natural protein, human, UniProt O15360 1-1455, looked up)
chain: MSDSWVPNSASGQDPGGRRRAWAELLAGRVKREKYNPERAQKLKESAVRLLRSHQDLNALLLEVEGPLCKKLSLSKVIDCDSSEAYANHSSSFIGSALQDQASRLGVPVGILSAGMVASSVGQICTAPAETSHPVLLTVEQRKKLSSLLEFAQYLLAHSMFSRLSFCQELWKIQSSLLLEAVWHLHVQGIVSLQELLESHPDMHAVGSWLFRNLCCLCEQMEASCQHADVARAMLSDFVQMFVLRGFQKNSDLRRTVEPEKMPQVTVDVLQRMLIFALDALAAGVQEESSTHKIVRCWFGVFSGHTLGSVISTDPLKRFFSHTLTQILTHSPVLKASDAVQMQREWSFARTHPLLTSLYRRLFVMLSAEELVGHLQEVLETQEVHWQRVLSFVSALVVCFPEAQQLLEDWVARLMAQAFESCQLDSMVTAFLVVRQAALEGPSAFLSYADWFKASFGSTRGYHGCSKKALVFLFTFLSELVPFESPRYLQVHILHPPLVPGKYRSLLTDYISLAKTRLADLKVSIENMGLYEDLSSAGDITEPHSQALQDVEKAIMVFEHTGNIPVTVMEASIFRRPYYVSHFLPALLTPRVLPKVPDSRVAFIESLKRADKIPPSLYSTYCQACSAAEEKPEDAALGVRAEPNSAEEPLGQLTAALGELRASMTDPSQRDVISAQVAVISERLRAVLGHNEDDSSVEISKIQLSINTPRLEPREHMAVDLLLTSFCQNLMAASSVAPPERQGPWAALFVRTMCGRVLPAVLTRLCQLLRHQGPSLSAPHVLGLAALAVHLGESRSALPEVDVGPPAPGAGLPVPALFDSLLTCRTRDSLFFCLKFCTAAISYSLCKFSSQSRDTLCSCLSPGLIKKFQFLMFRLFSEARQPLSEEDVASLSWRPLHLPSADWQRAALSLWTHRTFREVLKEEDVHLTYQDWLHLELEIQPEADALSDTERQDFHQWAIHEHFLPESSASGGCDGDLQAACTILVNALMDFHQSSRSYDHSENSDLVFGGRTGNEDIISRLQEMVADLELQQDLIVPLGHTPSQEHFLFEIFRRRLQALTSGWSVAASLQRQRELLMYKRILLRLPSSVLCGSSFQAEQPITARCEQFFHLVNSEMRNFCSHGGALTQDITAHFFRGLLNACLRSRDPSLMVDFILAKCQTKCPLILTSALVWWPSLEPVLLCRWRRHCQSPLPRELQKLQEGRQFASDFLSPEAASPAPNPDWLSAAALHFAIQQVREENIRKQLKKLDCEREELLVFLFFFSLMGLLSSHLTSNSTTDLPKAFHVCAAILECLEKRKISWLALFQLTESDLRLGRLLLRVAPDQHTRLLPFAFYSLLSYFHEDAAIREEAFLHVAVDMYLKLVQLFVAGDTSTVSPPAGRSLELKGQGNPVELITKARLFLLQLIPRCPKKSFSHVAELLADRGDCDPEVSAALQSRQQAAPDADLSQEPHLF
stoichiometry N: 2
